Assay results taken from patent publication US20240408248A1, “GRANZYME B-TARGETING COMPLEX, RADIOPHARMACEUTICAL, PREPARATION METHOD THEREFOR AND USE THEREOF” (priority 2021, published 2024).

Columns and labels:
[1] = target: T1, tumor Granzyme B (Mus musculus, UniProt P04187); assay: SPECT/CT imaging of tumor Granzyme B in MC38 tumor-bearing mice; type: in vivo, C57 mice; conditions: 18.5 MBq via tail vein, 0.5 h after injection
T1 construct: from tissue; host or cells: MC38 tumors in living C57 mice
T1 sequence (P04187 21-247): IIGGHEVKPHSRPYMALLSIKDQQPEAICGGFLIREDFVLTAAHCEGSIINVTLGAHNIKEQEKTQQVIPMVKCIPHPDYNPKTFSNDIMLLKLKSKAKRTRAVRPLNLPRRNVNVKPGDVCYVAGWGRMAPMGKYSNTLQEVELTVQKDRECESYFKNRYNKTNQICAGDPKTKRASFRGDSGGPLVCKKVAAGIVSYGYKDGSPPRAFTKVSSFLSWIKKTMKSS
Experimental: SPECT imaging of tumor Granzyme B with a ^99mTc-labeled HYNIC complex. 18.5 MBq of the freshly prepared ^99mTc-labeled HYNIC complex was taken and injected into female C57 mice bearing MC38 tumors in the right axilla via the tail vein. After injection for 0.5 h, the animals were anesthetized with isoflurane for SPECT/CT imaging.

[2] = target: T2, Granzyme B in 4T1 tumors (Mus musculus, UniProt P04187); design: species or system BALB/c mice; conditions: in vivo
T2 construct: from tissue; host or cells: 4T1 tumors in living BALB/c mice
T2 sequence (P04187 21-247): T1 sequence (P04187 21-247)
Experimental: (§1) MC38 and 4T1 tumor cells were inoculated subcutaneously in the right axilla of C57 and BALB/c mice, respectively, to establish immunotherapy pseudo-progression and true-progression mouse models. 200 μg of the anti-PD-1 antibody and anti-CTLA-4 antibody were injected intraperitoneally for a total of 3 times on days 0, 3 and 6, respectively. […] After injection for 0.5 h, the animals were anesthetized with isoflurane for PET/CT imaging. The changes of the tumor size in MC38 and 4T1 tumor-bearing mice were measured by a vernier caliper.

[3] = target: T3, Granzyme B in MC38 tumors (Mus musculus, UniProt P04187); design: species or system C57 mice; conditions: in vivo
T3 construct: from tissue; host or cells: MC38 tumors in living C57 mice
T3 sequence (P04187 21-247): T1 sequence (P04187 21-247)
Experimental: as §1

[4] = target: T1, tumor Granzyme B; assay: PET/CT imaging in MC38 tumor-bearing mice, comparison with radiopharmaceuticals with similar structures; type: in vivo, C57 mice; conditions: 7.4 MBq via tail vein, 0.5 h after injection, compared with the other three comparative radiopharmaceuticals
Experimental: In order to compare the in vivo nuclear medicine imaging advantages of the Granzyme B-targeting complex of the present invention, three Granzyme B-targeting complexes with similar structures are prepared by a similar synthesis method. All of them were labeled with ^68Ga after DOTA coupling to obtain the corresponding Granzyme B-targeting radioactive compounds. 7.4 MBq of the freshly prepared ^68Ga-labeled complex was taken and injected into female C57 mice bearing MC38 tumors via the tail vein. After injection for 0.5 h, the animals were anesthetized with isoflurane for PET/CT imaging. The result is illustrated in FIG. 11, showing that the ^68Ga-labelled DOTA complex of the present invention had optimal tumor Granzyme B uptake and low normal tissue (e.g. gastrointestinal tract) uptake compared with the other three comparative radiopharmaceuticals.

SMILES | uptake value in MC38 tumors (SPECT) [1] | tumor uptake on day 6 versus day 0 [2] | tumor uptake at day 6 versus day 0 [3] | normal tissue (e.g. gastrointestinal tract) uptake [4]
CC[C@H](C)[C@H](NC(=O)Cc1cccc(CNC(=O)C[C@H](NC(=O)C[C@H](NC(=O)c2ccc(NN)nc2)C(=O)O)C(=O)O)c1)C(=O)N[C@H]1CCc2cccc3c2N(C1=O)[C@H](C(=O)NCc1cn[nH]n1)C3 [^99mTc-labeled HYNIC complex, metal not drawn] | good uptake value |  |  | 
CC[C@H](C)[C@H](NC(=O)Cc1cccc(CNC(=O)C[C@H](NC(=O)C[C@H](NC(=O)CN2CCN(CC(=O)O)CCN(CC(=O)O)CCN(CC(=O)O)CC2)C(=O)O)C(=O)O)c1)C(=O)N[C@H]1CCc2cccc3c2N(C1=O)[C@H](C(=O)NCc1cn[nH]n1)C3 [^68Ga-labeled DOTA complex, metal not drawn] |  | no significant difference | significantly higher than that at day 0 | low
